# Results taken from patent publication US20050112126A1 (Genentech, published 2005).
# B1: pY0192 VH Y102A (Fab, V domains shown)
# VH: EVQLVESGGGLVQPGGSLRLSCAASGYTFTNYGINWVRQAPGKGLEWVGWINTYTGEPTYAADFKRRFTFSLDTSKSTAYLQMNSLRAEDTAVYYCAKYPHAYGSSHWYFDVWGQGTL
# VL: DIQLTQSPSSLSASVGDRVTITCRANEQLSNYLNWYQQKPGKAPKVLIYFTSSLHSGVPSRFSGSGSGTDFTLTISSLQPEDFATYYCQQYSTVPWTFGQGTKVEIKR
# notes: Ala-scan variant of pY0192; Fab on phage
# B2: pY0192 VL Q89A (Fab, V domains shown)
# VH: EVQLVESGGGLVQPGGSLRLSCAASGYTFTNYGINWVRQAPGKGLEWVGWINTYTGEPTYAADFKRRFTFSLDTSKSTAYLQMNSLRAEDTAVYYCAKYPHYYGSSHWYFDVWGQGTL
# VL: DIQLTQSPSSLSASVGDRVTITCRANEQLSNYLNWYQQKPGKAPKVLIYFTSSLHSGVPSRFSGSGSGTDFTLTISSLQPEDFATYYCAQYSTVPWTFGQGTKVEIKR
# notes: as for B1
# B3: pY0192 VL H55A (Fab, V domains shown)
# VH: EVQLVESGGGLVQPGGSLRLSCAASGYTFTNYGINWVRQAPGKGLEWVGWINTYTGEPTYAADFKRRFTFSLDTSKSTAYLQMNSLRAEDTAVYYCAKYPHYYGSSHWYFDVWGQGTL
# VL: DIQLTQSPSSLSASVGDRVTITCRANEQLSNYLNWYQQKPGKAPKVLIYFTSSLASGVPSRFSGSGSGTDFTLTISSLQPEDFATYYCQQYSTVPWTFGQGTKVEIKR
# notes: as for B1
# B4: pY0192 VL Q90A (Fab, V domains shown)
# VH: EVQLVESGGGLVQPGGSLRLSCAASGYTFTNYGINWVRQAPGKGLEWVGWINTYTGEPTYAADFKRRFTFSLDTSKSTAYLQMNSLRAEDTAVYYCAKYPHYYGSSHWYFDVWGQGTL
# VL: DIQLTQSPSSLSASVGDRVTITCRANEQLSNYLNWYQQKPGKAPKVLIYFTSSLHSGVPSRFSGSGSGTDFTLTISSLQPEDFATYYCQAYSTVPWTFGQGTKVEIKR
# notes: as for B1
# B5: pY0192 VL F50A (Fab, V domains shown)
# VH: EVQLVESGGGLVQPGGSLRLSCAASGYTFTNYGINWVRQAPGKGLEWVGWINTYTGEPTYAADFKRRFTFSLDTSKSTAYLQMNSLRAEDTAVYYCAKYPHYYGSSHWYFDVWGQGTL
# VL: DIQLTQSPSSLSASVGDRVTITCRANEQLSNYLNWYQQKPGKAPKVLIYATSSLHSGVPSRFSGSGSGTDFTLTISSLQPEDFATYYCQQYSTVPWTFGQGTKVEIKR
# notes: as for B1
# B6: pY0192 VL Q28A (Fab, V domains shown)
# VH: EVQLVESGGGLVQPGGSLRLSCAASGYTFTNYGINWVRQAPGKGLEWVGWINTYTGEPTYAADFKRRFTFSLDTSKSTAYLQMNSLRAEDTAVYYCAKYPHYYGSSHWYFDVWGQGTL
# VL: DIQLTQSPSSLSASVGDRVTITCRANEALSNYLNWYQQKPGKAPKVLIYFTSSLHSGVPSRFSGSGSGTDFTLTISSLQPEDFATYYCQQYSTVPWTFGQGTKVEIKR
# notes: as for B1
# B7: pY0192 VL E27A (Fab, V domains shown)
# VH: EVQLVESGGGLVQPGGSLRLSCAASGYTFTNYGINWVRQAPGKGLEWVGWINTYTGEPTYAADFKRRFTFSLDTSKSTAYLQMNSLRAEDTAVYYCAKYPHYYGSSHWYFDVWGQGTL
# VL: DIQLTQSPSSLSASVGDRVTITCRANAQLSNYLNWYQQKPGKAPKVLIYFTSSLHSGVPSRFSGSGSGTDFTLTISSLQPEDFATYYCQQYSTVPWTFGQGTKVEIKR
# notes: as for B1
# B8: pY0192 VL R24A (Fab, V domains shown)
# VH: EVQLVESGGGLVQPGGSLRLSCAASGYTFTNYGINWVRQAPGKGLEWVGWINTYTGEPTYAADFKRRFTFSLDTSKSTAYLQMNSLRAEDTAVYYCAKYPHYYGSSHWYFDVWGQGTL
# VL: DIQLTQSPSSLSASVGDRVTITCAANEQLSNYLNWYQQKPGKAPKVLIYFTSSLHSGVPSRFSGSGSGTDFTLTISSLQPEDFATYYCQQYSTVPWTFGQGTKVEIKR
# notes: as for B1
# B9: pY0192 VL N26A (Fab, V domains shown)
# VH: EVQLVESGGGLVQPGGSLRLSCAASGYTFTNYGINWVRQAPGKGLEWVGWINTYTGEPTYAADFKRRFTFSLDTSKSTAYLQMNSLRAEDTAVYYCAKYPHYYGSSHWYFDVWGQGTL
# VL: DIQLTQSPSSLSASVGDRVTITCRAAEQLSNYLNWYQQKPGKAPKVLIYFTSSLHSGVPSRFSGSGSGTDFTLTISSLQPEDFATYYCQQYSTVPWTFGQGTKVEIKR
# notes: as for B1
# B10: pY0192 VH Y109A (Fab, V domains shown)
# VH: EVQLVESGGGLVQPGGSLRLSCAASGYTFTNYGINWVRQAPGKGLEWVGWINTYTGEPTYAADFKRRFTFSLDTSKSTAYLQMNSLRAEDTAVYYCAKYPHYYGSSHWAFDVWGQGTL
# VL: DIQLTQSPSSLSASVGDRVTITCRANEQLSNYLNWYQQKPGKAPKVLIYFTSSLHSGVPSRFSGSGSGTDFTLTISSLQPEDFATYYCQQYSTVPWTFGQGTKVEIKR
# notes: as for B1
# B11: pY0192 VL N34A (Fab, V domains shown)
# VH: EVQLVESGGGLVQPGGSLRLSCAASGYTFTNYGINWVRQAPGKGLEWVGWINTYTGEPTYAADFKRRFTFSLDTSKSTAYLQMNSLRAEDTAVYYCAKYPHYYGSSHWYFDVWGQGTL
# VL: DIQLTQSPSSLSASVGDRVTITCRANEQLSNYLAWYQQKPGKAPKVLIYFTSSLHSGVPSRFSGSGSGTDFTLTISSLQPEDFATYYCQQYSTVPWTFGQGTKVEIKR
# notes: as for B1
# B12: pY0192 VL L33A (Fab, V domains shown)
# VH: EVQLVESGGGLVQPGGSLRLSCAASGYTFTNYGINWVRQAPGKGLEWVGWINTYTGEPTYAADFKRRFTFSLDTSKSTAYLQMNSLRAEDTAVYYCAKYPHYYGSSHWYFDVWGQGTL
# VL: DIQLTQSPSSLSASVGDRVTITCRANEQLSNYANWYQQKPGKAPKVLIYFTSSLHSGVPSRFSGSGSGTDFTLTISSLQPEDFATYYCQQYSTVPWTFGQGTKVEIKR
# notes: as for B1
# B13: pY0192 VL L29A (Fab, V domains shown)
# VH: EVQLVESGGGLVQPGGSLRLSCAASGYTFTNYGINWVRQAPGKGLEWVGWINTYTGEPTYAADFKRRFTFSLDTSKSTAYLQMNSLRAEDTAVYYCAKYPHYYGSSHWYFDVWGQGTL
# VL: DIQLTQSPSSLSASVGDRVTITCRANEQASNYLNWYQQKPGKAPKVLIYFTSSLHSGVPSRFSGSGSGTDFTLTISSLQPEDFATYYCQQYSTVPWTFGQGTKVEIKR
# notes: as for B1
# B14: pY0192 VL S30A (Fab, V domains shown)
# VH: EVQLVESGGGLVQPGGSLRLSCAASGYTFTNYGINWVRQAPGKGLEWVGWINTYTGEPTYAADFKRRFTFSLDTSKSTAYLQMNSLRAEDTAVYYCAKYPHYYGSSHWYFDVWGQGTL
# VL: DIQLTQSPSSLSASVGDRVTITCRANEQLANYLNWYQQKPGKAPKVLIYFTSSLHSGVPSRFSGSGSGTDFTLTISSLQPEDFATYYCQQYSTVPWTFGQGTKVEIKR
# notes: as for B1
# B15: pY0192 VL A25S (Fab, V domains shown)
# VH: EVQLVESGGGLVQPGGSLRLSCAASGYTFTNYGINWVRQAPGKGLEWVGWINTYTGEPTYAADFKRRFTFSLDTSKSTAYLQMNSLRAEDTAVYYCAKYPHYYGSSHWYFDVWGQGTL
# VL: DIQLTQSPSSLSASVGDRVTITCRSNEQLSNYLNWYQQKPGKAPKVLIYFTSSLHSGVPSRFSGSGSGTDFTLTISSLQPEDFATYYCQQYSTVPWTFGQGTKVEIKR
# notes: as for B1
# B16: pY0192 VL S52A (Fab, V domains shown)
# VH: EVQLVESGGGLVQPGGSLRLSCAASGYTFTNYGINWVRQAPGKGLEWVGWINTYTGEPTYAADFKRRFTFSLDTSKSTAYLQMNSLRAEDTAVYYCAKYPHYYGSSHWYFDVWGQGTL
# VL: DIQLTQSPSSLSASVGDRVTITCRANEQLSNYLNWYQQKPGKAPKVLIYFTASLHSGVPSRFSGSGSGTDFTLTISSLQPEDFATYYCQQYSTVPWTFGQGTKVEIKR
# notes: as for B1
# B17: pY0192 VH Y103A (Fab, V domains shown)
# VH: EVQLVESGGGLVQPGGSLRLSCAASGYTFTNYGINWVRQAPGKGLEWVGWINTYTGEPTYAADFKRRFTFSLDTSKSTAYLQMNSLRAEDTAVYYCAKYPHYAGSSHWYFDVWGQGTL
# VL: DIQLTQSPSSLSASVGDRVTITCRANEQLSNYLNWYQQKPGKAPKVLIYFTSSLHSGVPSRFSGSGSGTDFTLTISSLQPEDFATYYCQQYSTVPWTFGQGTKVEIKR
# notes: as for B1
# B18: pY0192 VL P95A (Fab, V domains shown)
# VH: EVQLVESGGGLVQPGGSLRLSCAASGYTFTNYGINWVRQAPGKGLEWVGWINTYTGEPTYAADFKRRFTFSLDTSKSTAYLQMNSLRAEDTAVYYCAKYPHYYGSSHWYFDVWGQGTL
# VL: DIQLTQSPSSLSASVGDRVTITCRANEQLSNYLNWYQQKPGKAPKVLIYFTSSLHSGVPSRFSGSGSGTDFTLTISSLQPEDFATYYCQQYSTVAWTFGQGTKVEIKR
# notes: as for B1
# B19: pY0192 VL N31A (Fab, V domains shown)
# VH: EVQLVESGGGLVQPGGSLRLSCAASGYTFTNYGINWVRQAPGKGLEWVGWINTYTGEPTYAADFKRRFTFSLDTSKSTAYLQMNSLRAEDTAVYYCAKYPHYYGSSHWYFDVWGQGTL
# VL: DIQLTQSPSSLSASVGDRVTITCRANEQLSAYLNWYQQKPGKAPKVLIYFTSSLHSGVPSRFSGSGSGTDFTLTISSLQPEDFATYYCQQYSTVPWTFGQGTKVEIKR
# notes: Ala-scan variant of pY0192; Fab on phage; also called N31A (VL)
# B20: pY0192 VL L54A (Fab, V domains shown)
# VH: EVQLVESGGGLVQPGGSLRLSCAASGYTFTNYGINWVRQAPGKGLEWVGWINTYTGEPTYAADFKRRFTFSLDTSKSTAYLQMNSLRAEDTAVYYCAKYPHYYGSSHWYFDVWGQGTL
# VL: DIQLTQSPSSLSASVGDRVTITCRANEQLSNYLNWYQQKPGKAPKVLIYFTSSAHSGVPSRFSGSGSGTDFTLTISSLQPEDFATYYCQQYSTVPWTFGQGTKVEIKR
# notes: as for B1
# B21: pY0192 VL S53A (Fab, V domains shown)
# VH: EVQLVESGGGLVQPGGSLRLSCAASGYTFTNYGINWVRQAPGKGLEWVGWINTYTGEPTYAADFKRRFTFSLDTSKSTAYLQMNSLRAEDTAVYYCAKYPHYYGSSHWYFDVWGQGTL
# VL: DIQLTQSPSSLSASVGDRVTITCRANEQLSNYLNWYQQKPGKAPKVLIYFTSALHSGVPSRFSGSGSGTDFTLTISSLQPEDFATYYCQQYSTVPWTFGQGTKVEIKR
# notes: as for B1
# Molecular target: T1, VEGF (human, UniProt P15692-4 27-191, limits assumed)
# T1 construct: Biotinylated in the KDR-IgG ELISA, amine-coupled to the chip in BIAcore; also called biotinylated VEGF; vascular endothelial growth factor
# Experiment: competitive phage-ELISA, relative to pY0192
# T1 sequence (P15692 other isoform, or with tags, fused parts or gaps limits assumed): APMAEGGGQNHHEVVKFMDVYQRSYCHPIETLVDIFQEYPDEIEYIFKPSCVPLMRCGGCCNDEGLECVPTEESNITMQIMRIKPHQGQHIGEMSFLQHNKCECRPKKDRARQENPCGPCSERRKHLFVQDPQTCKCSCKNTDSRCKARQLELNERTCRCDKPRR
row,Binder,IC50 (mut)/IC50 (wt) [ratio]
1,B1,4
2,B2,4
3,B3,1
4,B4,3
5,B5,1
6,B6,1
7,B7,1
8,B8,1
9,B9,1
10,B10,19
11,B11,4
12,B12,2
13,B13,1
14,B14,2
15,B15,1
16,B16,1
17,B17,5
18,B18,3
19,B19,2
20,B20,1
21,B21,1
